Experimental findings from PMC7263513 (bioRxiv, 2020) are described below.

To fix the notation:
B1: C122 (antibody, V domains shown)
VH: EVQLVESGGGLIQPGGSLRLSCAASGLTVSSNYMSWVRQAPGKGLEWVSVLYSGGSSFYADSVKGRFTISRDNSKNTLYLQMNSLRAEDTAVYYCARESGDTTMAFDYWGQGTLVTVSS
VL: DIQLTQSPSFLSASVGDRVTITCRASQGISSYLAWYQQKPGKAPKLLIYAASTLQSGVPSRFSGSGSGTEFTLTISSLQPEDFATYYCQQLNSDSYTFGQGTKLEIK
B2: C123 (antibody, V domains shown)
VH: EVQLVESGGGLIQPGGSLRLSCAASGVTVSRNYMSWVRQAPGKGLEWVSVIYSGGSTYYADSVKGRFTISRDNSKNTLYLQMNSLRAEDTAVYYCARDLSAAFDIWGQGTMVTVSS
VL: B1 VL with D94Y, S95P, Y96P, T97A, K103R
B3: C116 (antibody, V domains shown)
VH: QVQLVESGGGVVQPGRSLRLSCAASGFTYSTYAMHWVRQAPGKGLEWVAFISYDGSNKYYADSVKGRFTISRDNSKNTLYLQMNSLRAEDTAVYYCARDFYHNWFDPWGQGTLVTVSS
VL: NFMLTQPHSVSESPGKTVTISCTGSSGSIASNYVQWYQQRPGSAPTTVIYEDNQRPSGVPDRFSGSIDRSSNSASLTISGLKTEDEADYYCQSYDSGNHWVVFGGGTRLTVL
B4: C118 (antibody, V domains shown)
VH: QVQLVESGGGVVQPGRSLRLSCAASGFTFSNYAMHWVRQAPGKGLEWVAVISYDGSNKYYADSVKGRFTISRDNSKNTLYLQMNSLRAEDTAIYYCASGYTGYDYFVRGDYYGLDVWGQGTTVTVSS
VL: QPVLTQSPSASASLGASVKLTCTLSSGHSSYAIAWHQQQPEKGPRYLMKLNTDGSHSKGDGIPDRFSGSSSGAERYLTISSLQSEDEADYYCQTWGTGILVFGGGTKLTVL
B5: C130 (antibody, V domains shown)
VH: QVQLVQSGAEVKKPGASVKVSCKASGYTFTNYYMHWVRQAPGQGLEWMGIINPSGGSTGYAQKFQGRVTMTRDTSTSTVYMELSSLRSEDTAVYYCARSRPTPDWYFDLWGRGTLVTVSS
VL: SYELTQPPSVSVAPGKTARITCGGNNIGSKSVHWYQQKPGQAPVLVIYYDSDRPSGIPERFSGSNSGNTATLTISRVEAGDEADYYCQVWDSSSDHPGVVFGGGTKLTVL
B6: C126 (antibody, V domains shown)
VH: QVQLQESGPGLVKPSETLSLSCAVSGGSIGSYFWSWIRQPPGKGLEWIGYLHYSGSTNYNPSLKSRVTISVDTSKNQFSLKLSSVTAADTAVYYCARLQWLRGAFDIWGQGTMVTVSS
VL: NFMLTQPHSVSESPGKTVTISCTGSSGSIASNYVQWYQQRPGSAPTTVINEDNQRPSGVPDRFSGSIDSSSNSASLTISGLKTEDEADYYCQSYDSSNLVFGGGTKLTVL
B7: C117 (antibody, V domains shown)
VH: QVQLVESGGGVVQPGRSLRLSCAASGFTFSTYAMHWVRQAPGEGLEWVAVISYDGSNTYYADSVKGRFTISRDNSKNTLYLQMNSLRAEDTAVYYCARDPIWFGELLSPPFVHFDYWGQGTLVTVSS
VL: QSVLTQPPSVSAAPGQKVTISCSGSSSNIGNNLVSWYQQLPGTAPKLLIYENNKRPSGIPDRFSGSKSGTSATLGITGLQTGDEADYYCGAWDSSLSAGGVYVFGTGTKVTVL
B8: C120 (antibody, V domains shown)
VH: EVQLVESGGGLIQPGGSLRLSCAASGFTVSSNYMTWVRQAPGKGLEWVSLIYPGGSTYYADSVKGRFTISRDNSKNTLYLQMNSLRAEDTAVYYCAREGMGMAAAGTWGQGTLVTVSS
VL: AIRMTQSPSSLSASVGDTVTITCQASQDISKYLNWYQQKPGKAPKLLIYDASNLETGVPSRFSGSGSGTDFTFTISSLQPEDIATYYCQQYDNLPQTFGGGTKVEIK
B9: C121 (antibody, V domains shown)
VH: not shown
VL: QSALTQPASVSGSPGQSITISCTGTSSDVGSYNLVSWYQQHPGKAPKLMIYEGSKRPSGVSNRFSGSKSGNTASLTISGLQAEDEADYYCCSYAGSSTLVFGGGTKLTVL
B10: C115 (antibody, V domains shown)
VH: QVQLVESGGGLIKPGRSLRLSCTASGFTFGDYAMTWFRQAPGKGLEWVGFIRSKAYGGTTGYAASVKYRFTISRDDSKSIAYLQMDSLKTEDTAVYYCTRWDGWSQHDYWGQGTLVTVSS
VL: DIVMTQSPLSLSVTPGEPASISCRSSQSLLHSNGNNYFDWYLQKPGQSPQLLIYLGSNRASGVPDRFSGSGSGTDFTLKISRVEAEDVGVYYCMQVLQIPYTFGQGTKLEIK
B11: C131 (antibody, V domains shown)
VH: QVQLVQSGSEVKKPGSSVKVSCKASGGTFSSYAFSWVRQAPGQGLEWMGRIIPILALANYAQKFQGRVTITADKSTSTAYMELSSLRSEDTAVYYCARVNQAVTTPFSMDVWGQGTTVTVSS
VL: not shown
B12: C124 (antibody, V domains shown)
VH: EVQLVESGGGLVQPGGSLRLSCAASGFTFSGYSMNWVRQAPGKGPEWVSYISRSSSTIYYADSVKGRFTISRDNAKNSLYLQMNSLRDEDTAVYYCAREGARVGATYDTYYFDYWGQGTLVTVSS
VL: EIVLTQSPATLSLSPGERATLSCRASQSFSSYLAWYQQKPGQAPRLLIYDASNRATGIPARFSGSGSGTDFTLTISSLEPEDFAVYYCQQRNNWPPEWTFGQGTKVEIK
B13: C114 (antibody, V domains shown)
VH: QVQLVESGGGLIQPGGSLKLSCVVSGFTVSKNYISWVRQAPGKGLEWVSVIFAGGSTFYADSVKGRFAISRDNSNNTLFLQMNSLRVEDTAIYYCARGDGELFFDQWGQGTLVTVSS
VL: QSVLTQPPSVSGAPGQRVTISCTGTSSNIGAGYDVHWYQQLPGRAPKVLISGNNIRPSEVPDRFSGSRSGTSASLAITSLQPEDEAQYYCQSYDSSLYAVFGGGTKLTVL
B14: C119 (antibody, V domains shown)
VH: QVQLVQSGAEVKKPGASVKVSCKASGYTFTSYYMHWVRQAPGQGLEWMGIINPSGGSTSYAQKLQGRVTMTRDTSTSTVYMELSSLRSEDTAVYYCARANHETTMDTYYYYYYMDVWGKGTTVTVSS
VL: QSALTQPASVSGSPGQSITISCTGTSSDVGGYKYVSWYQRHPGKAPKLMIYDVSNRPSGVSNRFSGSKSGNTASLTISGLQAEDEADYYCSSYTSSSTSVVFGGGTQLTVL
B15: C128 (antibody, V domains shown)
VH: EVQLLESGGGLVQPGGSLRLSCAASGFTFSTYAMSWVRQAPGKGLEWVSTITGSGRDTYYADSVKGRFTISRDNSKNTLFLQLNSLRAEDAAVYSCANHPLASGDDYYHYYMDVWGKGTTVTVSS
VL: EIVLTQSPGTLSLSPGERATLSCRASQSVNSRQLAWYQQKPGQAPRLLIYGASSRATGIPERFSGSGSGTDFTLTISRLESEDFAVYHCQQYGSSRALTFGGGTKVEIK

Where a chain is given by its changes, count along the chain named. Where only a bound is given, the exact number is not on record here.

In the assay the target is SARS-CoV-2 receptor binding domain (RBD) (Severe acute respiratory syndrome …, UniProt P0DTC2). Briefly: cell-based or functional assay.
For B1, the “IC50 of neutralisation of SARS-CoV-2 pseudovirus (293T_(ACE2) cells)” value (from here on “IC50”) is 0.0228 µg/mL.
As to B2, the “IC50” value came out at 0.149 µg/mL.
Take B3: the “IC50” value was over 1 µg/mL.
With B4 the figure was 0.104 µg/mL; with B5, over 1 µg/mL; with B6, over 1 µg/mL.
Turning to B7, the “IC50” value came out at 0.348 µg/mL.
With B8 the figure was 0.0133 µg/mL.
Take B9: the “IC50” value was determined as 0.00673 µg/mL.
With B10 the figure was 0.198 µg/mL; with B11, 0.0305 µg/mL; with B12, 0.342 µg/mL.
As to B13, the “IC50” value was over 1 µg/mL.
Turning to B14, the “IC50” value was 0.00912 µg/mL.
Turning to B15, the “IC50” value was 0.101 µg/mL.
